Results taken from patent US20240307560A1, “HEPTAMETHINE CARBOCYANINE DYE-DOTA CONJUGATES COMPLEXED WITH LUTETIUM-177, YTTRIUM-90, OR GALLIUM-68, AND THEIR USES FOR IMAGE-GUIDED RADIOTHERAPY” (priority 2020, published 2024).

How the values were obtained:
[1] = in vivo; parameters: species or system Balb/C mice; conditions: Balb/C, mouse, iv
Description: DZ-1-Lys-DOTA-^68Ga (50 μCi) probe was injected into the tail vein of Balb/C mice (n=6, each about 20 g of body weight). Approximately 10 μL of blood from the contralateral tail vein was collected in capillary tubes at 2 min, 5 min, 15 min, 30 min, 1 h, 2 h and 4.5 h post probe injection. The capillaries were placed in pre-weighed tubes to measure the weight and radioactivity of the blood withdrawn. Radioactivity from each sample was measured by a gamma counter with radioactivity decay corrected to the time of probe injection, normalized for injected dose and blood weight, and expressed as percentage injected dose per gram blood (FIG. 2). Each animal was i.v. injected 50 μCi of the probe.
DZ-1-Lys-DOTA-^177Lu (50 μCi) was injected into the tail vein of Balb/C mice (n=6, about 20 g). Approximately 10 μL of blood from the contralateral tail vein was collected in capillary tubes at 2 min, 5 min, 15 min, 30 min, 1 h, 2 h and 6 h post probe injection. The capillaries were placed in pre-weighed tubes to measure the weight and radioactivity of the blood withdrawn. Radioactivity from each sample was measured by a gamma counter with the radioactivity decay corrected to the time of probe injection, normalized for injected dose and blood weight, and expressed as percentage injected dose per gram blood.

[2] = assay type: in vitro ADME, Bovine; conditions: for half-life (stability in serum): bovine
Description: DZ-1-Lys-DOTA-^68Ga was incubated with Fetal Bovine Serum (FBS) at 37° C., and the stability of DZ-1-Lys-DOTA-^68Ga was analyzed by radio-TLC with 0.1M citric acid as eluent.
The % purity is a marker for stability, with a higher purity indicating a higher stability.
The DZ-1-Lys-DOTA-^177Lu was incubated with Fetal Bovine Serum (FBS) at 37° C., and the probe was analyzed by radio-TLC with 0.1M citric acid as eluent (see FIG. 3). Stability is determined by the percentage of the labeled compound (radiochemical purity).
The DZ-1-Lys-DOTA-^90Y was incubated with Fetal Bovine Serum (FBS) (V:V=2:1) at 37° C. and the probe was analyzed by radio-TLC with 0.1M citric acid as eluent.

[3] = test system: MDA-MB-231 breast cancer cells; assay: Cytotoxicity study, CCK-8; conditions: for % cell viability: human
Description: The MDA-MB-231 breast cancer cells were pre-seeded into 96-well plates (10^4 cells/well), and placed in a 37° C., 5% CO2 incubator until the cells were fully attached. Serially diluted DZ-1-Lys-DOTA-^90Y (100 μL) was added to each well (7 concentrations diluted from 20 μCi in half), and 3 replicate wells for each concentration point. After 24 and 48 hours of treatment, the supernatant was discarded, and 10 μL of CCK-8 solution and 100 μL of medium were added to each well. The culture was continued for 1 h in the incubator, and the absorbance of each well at 450 nm was measured with a microplate reader.

[4] = 50 uCi, total radioactivity, Normalized radioactivity in blood (% ID/g)

## CC1(C)C(/C=C/C2=C(Cl)C(=C/C=C3/N(CCCCCC(=O)NCCCCC(NC(=O)CN4CCN(CC(=O)O)CCN(CC(=O)O)CCN(CC(=O)O)CC4)C(=O)O)c4ccccc4C3(C)C)/CCC2)=[N+](CCCCS(=O)(=O)[O-])c2ccccc21 (single isomer, unassigned) [DZ-1-Lys-DOTA-68Ga, metal not drawn]
[1]
  elimination half-life for blood clearance (T1/2): 30 min
[1]; 50 uCi, 0.25 h
  Normalized radioactivity in blood (% ID/g): 1.13 % ID/g
[1]; 50 uCi, 0.5 h
  Normalized radioactivity in blood (% ID/g): 0.97 % ID/g
[1]; 50 uCi, 1 h
  Normalized radioactivity in blood (% ID/g): 0.80 % ID/g
[1]; 50 uCi, 2 h
  Normalized radioactivity in blood (% ID/g): 0.70 % ID/g
[1]; [4]
  tissue uptake at 2 min: 1.83 %ID/g
  tissue uptake at 5 min: 1.44 %ID/g
  tissue uptake at 4.5 h: 0.5 %ID/g
[1]; 50 uCi, total radioactivity, normalized radioactivity in blood (D/g)
  tissue uptake: ~1.8 %ID/g

## CC1(C)C(/C=C/C2=C(Cl)C(=C/C=C3/N(CCCCCC(=O)NCCCCC(NC(=O)CN4CCN(CC(=O)O)CCN(CC(=O)O)CCN(CC(=O)O)CC4)C(=O)O)c4ccccc4C3(C)C)/CCC2)=[N+](CCCCS(=O)(=O)[O-])c2ccccc21 (single isomer, unassigned) [DZ-1-Lys-DOTA-177Lu, metal not drawn]
[2]
  retention (radiochemical purity): about 30%
  half-life (stability in serum): about 700 min
[1]
  elimination half-life for blood clearance (T1/2): 15 min
[1]; 50 uCi, 2 min
  Normalized radioactivity in blood (% ID/g): 1.26 % ID/g
[1]; 50 uCi, 5 min
  Normalized radioactivity in blood (% ID/g): 0.86 % ID/g
[1]; 50 uCi, 0.25 h
  Normalized radioactivity in blood (% ID/g): 0.51 % ID/g
[1]; 50 uCi, 0.5 h
  Normalized radioactivity in blood (% ID/g): 0.43 % ID/g
[1]; 50 uCi, 1 h
  Normalized radioactivity in blood (% ID/g): 0.36 % ID/g
[1]; 50 uCi, 2 h
  Normalized radioactivity in blood (% ID/g): 0.34 % ID/g
[1]; [4]
  tissue uptake at 6 h: 0.23 %ID/g

## CC1(C)C(/C=C/C2=C(Cl)C(=C/C=C3/N(CCCCCC(=O)NCCCCC(NC(=O)CN4CCN(CC(=O)O)CCN(CC(=O)O)CCN(CC(=O)O)CC4)C(=O)O)c4ccccc4C3(C)C)/CCC2)=[N+](CCCCS(=O)(=O)[O-])c2ccccc21 (single isomer, unassigned) [DZ-1-Lys-DOTA-90Y, metal not drawn]
[2]
  retention (radiochemical purity): about 30%
  half-life (stability in serum): about 240 min
[3]; 20 μCi, within 48 hours
  breast cancer cells caused to die: 80%
[3]; 48 h, 20 microCi
  cancer cell killing compared to free 90Y (in words): kills MDA-MB-231 triple-negative breast cancer cells more effectively
[3]; 48 h, 0.3125 μCi
  % cell viability: 43.92%
[3]; 48 h, 0.625 μCi
  % cell viability: 42.08%
[3]; 48 h, 1.25 μCi
  % cell viability: 41.50%
[3]; 48 h, 2.5 μCi
  % cell viability: 39.63%
[3]; 48 h, 5 μCi
  % cell viability: 35.57%
[3]; 48 h, 10 μCi
  % cell viability: 35.46%
[3]; 48 h, 20 μCi
  % cell viability: 19.21%
